Data on 20 proteins can be found in patent publication US20250115889A1 (DENTERIC, published 2025).

B1: DUF-ABM213 (other)
chain: AEGSREVKRIGDGLFVTIEPANDVRANEAKVVLAADNVWGDNTGYQFLLDADHNTFGSVIPATGPLFTGTASSNLYSANFEYLIPANADPVVTTQNIIVTGQGEVVIPGGVYDYCITNPEPASGKMWIAGDGGNQPARYDDFTFEAGKKYTFTMRRAGMGDGTDMEVEDDSPASYTYTVYRDGTKIKEGLTATTFEEDGVAAGNHEYCVEVKYTAGVSPKVCKDVTVEGSNEFAPVQNLTGSSVGQKVTLKWDAPNGTPNPNPNPNPNPGT
notes: also called DUF2436 domain plus ABMs
B2: DUF (other)
chain: AEGSREVKRIGDGLFVTIEPANDVRANEAKVVLAADNVWGDNTGYQFLLDADHNTFGSVIPATGPLFTGTASSNLYSANFEYLIPANADPVVTTQNIIVTGQGEVVIPGGVYDYCITNPEPASGKMWIAGDGGNQPARYDDFTFEAGKKYTFTMRRAGMGDGTDM
notes: also called DUF2436 domain; not shown: C-terminal His tag
B3: KDAK1n-4S-AVQP (other)
chain: NTGVSFANYTAHGSETAWADPLLTTSQLKALTNKDKAEGSREVKRIGDGLFVTIEPANDVRANEAKVVLAADNVWGDNTGYQFLLDADHNTFGSVIPATGPLFTGTASSNLYSANFEYLIPANADPVVTTQNIIVTGQGEVVIPGGVYDYSITNPEPASGKMWIAGDGGNQPARYDDFTFEAGKKYTFTMRRAGMGDGTDMEVEDDSPASYTYTVYRDGTKIKEGLTATTFEEDGVAAGNHEYSVEVKYTAGVSPKVSKDVTVEGSNEFAAVQPLTGSSVGQKVTLKWDAPNGTPNPNPNPNPNPGTTLSESFENGIPASWKTIDADGDGHGWKPGNAPGIAGYNSNGSVYSESFGLGGIGVLTPDNYLITPALDLPNGG
notes: also called KDAK1n mutant
B4: rABM213 (other)
chain: ASYTYTVYRDGTKIKEGLTATTFEEDGVAAGNHEYCVEVKYTAGVSPKVCKDVTVEGSNEFAPVQNLTGSSVGQKVTLKWDAPNGTPNPNPNPNPNPGT
notes: also called recombinant protein encoding ABM2(1), ABM1(2) and ABM3
B5: rABM21-AVQP (other)
chain: ASYTYTVYRDGTKIKEGLTATTFEEDGVAAGNHEYCVEVKYTAGVSPKVCKDVTVEGSNEFAAVQPLTGSSVGQKVTLKWDAPN
B6: rABM21-AVQA (other)
chain: ASYTYTVYRDGTKIKEGLTATTFEEDGVAAGNHEYCVEVKYTAGVSPKVCKDVTVEGSNEFAAVQALTGSSVGQKVTLKWDAPN
B7: rABM21-AVQA-2X Cys > Ser (other)
chain: ASYTYTVYRDGTKIKEGLTATTFEEDGVAAGNHEYSVEVKYTAGVSPKVSKDVTVEGSNEFAAVQALTGSSVGQKVTLKWDAPN
B8: rABM21--Y > A (other)
chain: ASYTATVYRDGTKIKEGLTATTFEEDGVAAGNHEYCVEVKYTAGVSPKVCKDVTVEGSNEFAPVQNLTGSSVGQKVTLKWDAPN
B9: rABM21-AVQN (other)
chain: ASYTYTVYRDGTKIKEGLTATTFEEDGVAAGNHEYCVEVKYTAGVSPKVCKDVTVEGSNEFAAVQNLTGSSVGQKVTLKWDAPN
B10: rABM21 (other)
chain: ASYTYTVYRDGTKIKEGLTATTFEEDGVAAGNHEYCVEVKYTAGVSPKVCKDVTVEGSNEFAPVQNLTGSSVGQKVTLKWDAPN
notes: also called recombinant ABM21; recombinant protein encoding ABM2(1) and ABM1(2)
B11: rABM21-SSEYQ (other)
chain: ASYTYTVYRDGTKIKEGLTATTFEEDGVAAGNHEYCVEVKYTAGVSPKVCKDVTVEGSSEYQPVQNLTGSSVGQKVTLKWDAPNGT
notes: also called SSEYQ variant
B12: rABM21-Y > A/W > A (other)
chain: ASYTATVYRDGTKIKEGLTATTFEEDGVAAGNHEYCVEVKYTAGVSPKVCKDVTVEGSNEFAPVQNLTGSSVGQKVTLKADAPNGT
B13: KDcAK1n-4S (other)
chain: NTGVSFANYTAHGSETAWADPLLTTSQLKALTNKDKWGDNTGYQFLLDADHNTFGSVIPATGPLFTGTASSNLYSANFEYLIPANADPVVTTQNIIVTGQGEVVIPGGVYDYSITNPEPASGKMWIAGDGGNQPARYDDFTFEAGKKYTFTMRRAGMGDGTDMEVEDDSPASYTYTVYRDGTKIKEGLTATTFEEDGVAAGNHEYSVEVKYTAGVSPKVSKDVTVEGSNEFAPVQNLTGSSVGQKVTLKWDAPNGTPNPNPNPNPNPGTTLSESFENGIPASWKTIDADGDGHGWKPGNAPGIAGYNSNGSVYSESFGLGGIGVLTPDNYLITPALDLPNGG
notes: also called chimera with all four Cysteine residues mutated to Serine
B14: KDcAK1n-4S-AVQP (other)
chain: NTGVSFANYTAHGSETAWADPLLTTSQLKALTNKDKWGDNTGYQFLLDADHNTFGSVIPATGPLFTGTASSNLYSANFEYLIPANADPVVTTQNIIVTGQGEVVIPGGVYDYSITNPEPASGKMWIAGDGGNQPARYDDFTFEAGKKYTFTMRRAGMGDGTDMEVEDDSPASYTYTVYRDGTKIKEGLTATTFEEDGVAAGNHEYSVEVKYTAGVSPKVSKDVTVEGSNEFAAVQPLTGSSVGQKVTLKWDAPNGTPNPNPNPNPNPGTTLSESFENGIPASWKTIDADGDGHGWKPGNAPGIAGYNSNGSVYSESFGLGGIGVLTPDNYLITPALDLPNGG
notes: also called KDcAKIn-4S-AVQP; KDcAK1n PVQN>AVQP/4 Cys>Ser variant
B15: rABM21-2XCys > Ser (other)
chain: ASYTYTVYRDGTKIKEGLTATTFEEDGVAAGNHEYSVEVKYTAGVSPKVSKDVTVEGSNEFAPVQNLTGSSVGQKVTLKWDAPN
B16: rABM21-AVQP-2X Cys > Ser (other)
chain: ASYTYTVYRDGTKIKEGLTATTFEEDGVAAGNHEYSVEVKYTAGVSPKVSKDVTVEGSNEFAAVQPLTGSSVGQKVTLKWDAPN
notes: also called ABM21-2S-AVQP
B17: KDcAK1n (prior art chimera) (other)
chain: NTGVSFANYTAHGSETAWADPLLTTSQLKALTNKDKWGDNTGYQFLLDADHNTFGSVIPATGPLFTGTASSNLYSANFEYLIPANADPVVTTQNIIVTGQGEVVIPGGVYDYCITNPEPASGKMWIAGDGGNQPARYDDFTFEAGKKYTFTMRRAGMGDGTDMEVEDDSPASYTYTVYRDGTKIKEGLTATTFEEDGVAAGNHEYCVEVKYTAGVSPKVCKDVTVEGSNEFAPVQNLTGSSVGQKVTLKWDAPNGTPNPNPNPNPNPGTTLSESFENGIPASWKTIDADGDGHGWKPGNAPGIAGYNSNGCVYSESFGLGGIGVLTPDNYLITPALDLPNGG
notes: also called original chimera
B18: KDcAK1nK (other)
chain: NTGVSFANYTAHGSETAWADPLLTTSQLKALTNKDKWGDNTGYQFLLDADHNTFGSVIPATGPLFTGTASSNLYSANFEYLIPANADPVVTTQNIIVTGQGEVVIPGGVYDYCITNPEPASGKMWIAGDGGNQPARYDDFTFEAGKKYTFTMRRAGMGDGTDMEVEDDSPASYTYTVYRDGTKIKEGLTATTFEEDGVAAGNHEYCVEVKYTAGVSPKVCKDVTVEGSNEFAPVQNLTGSSVGQKVTLKWDAPNGTPNPNPNPNPNPGTTLSESFENGIPASWKTIDADGDGHGWKPGNAPGIAGYNSNGCVYSESFGLGGIGVLTPDNYLITPALDLPNGGNTGVSFANYTAHGSETAWADPLLTTSQLKALTNKDK
B19: KDAK1n (other)
chain: NTGVSFANYTAHGSETAWADPLLTTSQLKALTNKDKAEGSREVKRIGDGLFVTIEPANDVRANEAKVVLAADNVWGDNTGYQFLLDADHNTFGSVIPATGPLFTGTASSNLYSANFEYLIPANADPVVTTQNIIVTGQGEVVIPGGVYDYCITNPEPASGKMWIAGDGGNQPARYDDFTFEAGKKYTFTMRRAGMGDGTDMEVEDDSPASYTYTVYRDGTKIKEGLTATTFEEDGVAAGNHEYCVEVKYTAGVSPKVCKDVTVEGSNEFAPVQNLTGSSVGQKVTLKWDAPNGTPNPNPNPNPNPGTTLSESFENGIPASWKTIDADGDGHGWKPGNAPGIAGYNSNGCVYSESFGLGGIGVLTPDNYLITPALDLPNGG
B20: KDAK1nK (other)
chain: NTGVSFANYTAHGSETAWADPLLTTSQLKALTNKDKAEGSREVKRIGDGLFVTIEPANDVRANEAKVVLAADNVWGDNTGYQFLLDADHNTFGSVIPATGPLFTGTASSNLYSANFEYLIPANADPVVTTQNIIVTGQGEVVIPGGVYDYCITNPEPASGKMWIAGDGGNQPARYDDFTFEAGKKYTFTMRRAGMGDGTDMEVEDDSPASYTYTVYRDGTKIKEGLTATTFEEDGVAAGNHEYCVEVKYTAGVSPKVCKDVTVEGSNEFAPVQNLTGSSVGQKVTLKWDAPNGTPNPNPNPNPNPGTTLSESFENGIPASWKTIDADGDGHGWKPGNAPGIAGYNSNGCVYSESFGLGGIGVLTPDNYLITPALDLPNGGNTGVSFANYTAHGSETAWADPLLTTSQLKALTNKDK

The first series concerns the molecule itself. The series is described as follows: column 'Multimer [yes/no]'; self-association.
Take B1: the binding result is reported as “binds”.

On to B2, for which the binding result is reported as “no binding”.

Turning to B3, the binding result is “no binding”.

The next series concerns the molecule itself. The series is described as follows: Native PAGE without DTT; self-association (ability to form multimers).
Turning to B4, the binding result is “binds”.

On to B5, for which the binding result is reported as “binds”.

B6: the binding result is recorded as “binds”.

As for B7, the binding result is on record as “binds”.

Consider B8, for which the binding result is “binds”.

As for B9, the binding result is “binds”.

As to B10, the binding result is reported as “binds”.

For B11, the binding result is listed as “binds”.

Take B12: the binding result is reported as “no binding”.

A further series concerns the molecule itself. The series is described as follows: native PAGE with and without DTT, self-association (multimer ladder).
On to B13, for which the binding result is given as “binds”.

On to B14, for which the binding result was “no binding”.

On to B15, for which the binding result is listed as “binds”.

For the protein B16, the binding result is reported as “no binding”.

A further series concerns the molecule itself. Kind of series: native PAGE of small scale purified protein, self-association (multimers).
On to B17, for which the binding result is “binds”.

Another series deals with the molecule itself. The series is described as follows: native PAGE of small scale purified protein, self-association (multimer bands).
Turning to B18, the binding result is given as “binds”.

A further series concerns the molecule itself. Kind of series: native PAGE of small scale purified protein, self-association (multimer ladder).
For the protein B19, the binding result is given as “binds”.

Regarding B20, the binding result is “binds”.
